The values below come from ChEMBL document CHEMBL1275523.

Broadly, the Km is the substrate concentration at which the rate is half of its maximum.

What all share (type): cell-based
Substrate in data set [1]: CC(=O)N[C@H]1[C@H]([C@H](O)[C@H](O)CO)O[C@@](Oc2ccc3c(C)cc(=O)oc3c2)(C(=O)O)C[C@@H]1O
As to the kind of experiment: Activity of human NEU4 expressed in HEK293 cells by fluorometric high-performance liquid chromatography.

Substrate in data set [2]: CC(=O)N[C@H]1[C@H]([C@H](O)[C@H](O)CO)O[C@@](Oc2ccc3c(C)cc(=O)oc3c2)(C(=O)O)C[C@@H]1O
As to the kind of experiment: Activity of human NEU2 expressed in HEK293 cells by fluorometric high-performance liquid chromatography.

Substrate in data set [3]: CCCCCCCCCCCCC/C=C/[C@@H](O)[C@H](CO[C@@H]1O[C@H](CO)[C@@H](O[C@@H]2O[C@H](CO)[C@H](O)[C@H](O[C@]3(C(=O)O)C[C@H](O)[C@@H](NC(C)=O)[C@H]([C@H](O)[C@H](O)CO)O3)[C@H]2O)[C@H](O)[C@H]1O)NC(=O)CCCCCCCCCCCCCCCCCCCCCC
Briefly: Activity of human NEU3 expressed in HEK293 cells by fluorometric high-performance liquid chromatography.

B1: Sialidase-4 (Homo sapiens), Q8WWR8 (protein)
chain: MGVPRTPSRTVLFERERTGLTYRVPSLLPVPPGPTLLAFVEQRLSPDDSHAHRLVLRRGTLAGGSVRWGALHVLGTAALAEHRSMNPCPVHDAGTGTVFLFFIAVLGHTPEAVQIATGRNAARLCCVASRDAGLSWGSARDLTEEAIGGAVQDWATFAVGPGHGVQLPSGRLLVPAYTYRVDRRECFGKICRTSPHSFAFYSDDHGRTWRCGGLVPNLRSGECQLAAVDGGQAGSFLYCNARSPLGSRVQALSTDEGTSFLPAERVASLPETAWGCQGSIVGFPAPAPNRPRDDSWSVGPGSPLQPPLLGPGVHEPPEEAAVDPRGGQVPGGPFSRLQPRGDGPRQPGPRPGVSGDVGSWTLALPMPFAAPPQSPTWLLYSHPVGRRARLHMGIRLSQSPLDPRSWTEPWVIYEGPSGYSDLASIGPAPEGGLVFACLYESGARTSYDEISFCTFSLREVLENVPASPKPPNLGDKPRGCCWPS
Take B1: the Km in data set [1] is 20.3 µM.

B2: Sialidase-2 (Homo sapiens), Q9Y3R4 (protein)
chain: MASLPVLQKESVFQSGAHAYRIPALLYLPGQQSLLAFAEQRASKKDEHAELIVLRRGDYDAPTHQVQWQAQEVVAQARLDGHRSMNPCPLYDAQTGTLFLFFIAIPGQVTEQQQLQTRANVTRLCQVTSTDHGRTWSSPRDLTDAAIGPAYREWSTFAVGPGHCLQLHDRARSLVVPAYAYRKLHPIQRPIPSAFCFLSHDHGRTWARGHFVAQDTLECQVAEVETGEQRVVTLNARSHLRARVQAQSTNDGLDFQESQLVKKLVEPPPQGCQGSVISFPSPRSGPGSPAQWLLYTHPTHSWQRADLGAYLNPRPPAPEAWSEPVLLAKGSCAYSDLQSMGTGPDGSPLFGCLYEANDYEEIVFLMFTLKQAFPAEYLPQ
With B2, the Km in data set [2] is 1800 µM.

B3: Sialidase-3 (Homo sapiens), Q9UQ49 (protein)
chain: MEEVTTCSFNSPLFRQEDDRGITYRIPALLYIPPTHTFLAFAEKRSTRRDEDALHLVLRRGLRIGQLVQWGPLKPLMEATLPGHRTMNPCPVWEQKSGCVFLFFICVRGHVTERQQIVSGRNAARLCFIYSQDAGCSWSEVRDLTEEVIGSELKHWATFAVGPGHGIQLQSGRLVIPAYTYYIPSWFFCFQLPCKTRPHSLMIYSDDLGVTWHHGRLIRPMVTVECEVAEVTGRAGHPVLYCSARTPNRCRAEALSTDHGEGFQRLALSRQLCEPPHGCQGSVVSFRPLEIPHRCQDSSSKDAPTIQQSSPGSSLRLEEEAGTPSESWLLYSHPTSRKQRVDLGIYLNQTPLEAACWSRPWILHCGPCGYSDLAALEEEGLFGCLFECGTKQECEQIAFRLFTHREILSHLQGDCTSPGRNPSQFKSN
Take B3: the Km in data set [3] was 45.6 µM.
